B1: 5KPH (parent)
chain: EEKRQVKQVAKEKLLEQSPNSKVQVRRVQKQGNTIRVELELRTNGKKENYTVEVERQGNTWTVKRITRT

Variants of: B1
Assay: folding stability dG (cDNA display proteolysis); higher = more stable
Settings: PBS, room temperature

| Variant | folding stability dG [kcal/mol] |
| --- | --- |
| EEKRQVKQVAKEKLLEGSPNSKVQVRRVQKQGNTIRVELELRTNGKKENYTVEVERQGNTWTVKRITRT | 3.64 |
| EEKRQVKQVAKEKLLAQSPNSKVQVRRVQKQGNTIRVELELRTNGKKENYTVEVERQGNTWTVKRITRT | 3.8 |
| EEKRQVKQVAKEKLLSQSPNSKVQVRRVQKQGNTIRVELELRTNGKKENYTVEVERQGNTWTVKRITRT | 3.55 |
| EEKRQVKQVAKEKLLRQSPNSKVQVRRVQKQGNTIRVELELRTNGKKENYTVEVERQGNTWTVKRITRT | 3.08 |
| EEKRQVKQVAKEKLLNQSPNSKVQVRRVQKQGNTIRVELELRTNGKKENYTVEVERQGNTWTVKRITRT | 3.21 |
| EEKRQVKQVAKEKLLMQSPNSKVQVRRVQKQGNTIRVELELRTNGKKENYTVEVERQGNTWTVKRITRT | 3.38 |
| EEKRQVKQVAKEKLLPQSPNSKVQVRRVQKQGNTIRVELELRTNGKKENYTVEVERQGNTWTVKRITRT | 2.15 |
| EEKRQVKQVAKEKLLGQSPNSKVQVRRVQKQGNTIRVELELRTNGKKENYTVEVERQGNTWTVKRITRT | 3.25 |
| EEKRQVKQVAKEKLLHQSPNSKVQVRRVQKQGNTIRVELELRTNGKKENYTVEVERQGNTWTVKRITRT | 3.17 |
| EEKRQVKQVAKEKLLDQSPNSKVQVRRVQKQGNTIRVELELRTNGKKENYTVEVERQGNTWTVKRITRT | 3.16 |
| EEKRQVKQVAKEKLLYQSPNSKVQVRRVQKQGNTIRVELELRTNGKKENYTVEVERQGNTWTVKRITRT | 2.61 |
| EEKRQVKQVAKEKLLQQSPNSKVQVRRVQKQGNTIRVELELRTNGKKENYTVEVERQGNTWTVKRITRT | 3.77 |
| EEKRQVKQVAKEKLLVQSPNSKVQVRRVQKQGNTIRVELELRTNGKKENYTVEVERQGNTWTVKRITRT | 2.86 |
| EEKRQVKQVAKEKLLIQSPNSKVQVRRVQKQGNTIRVELELRTNGKKENYTVEVERQGNTWTVKRITRT | 3.04 |
| EEKRQVKQVAKEKLLCQSPNSKVQVRRVQKQGNTIRVELELRTNGKKENYTVEVERQGNTWTVKRITRT | 3.27 |
| EEKRQVKQVAKEKLLTQSPNSKVQVRRVQKQGNTIRVELELRTNGKKENYTVEVERQGNTWTVKRITRT | 3.34 |
| EEKRQVKQVAKEKLLLQSPNSKVQVRRVQKQGNTIRVELELRTNGKKENYTVEVERQGNTWTVKRITRT | 3.47 |
| EEKRQVKQVAKEKLLKQSPNSKVQVRRVQKQGNTIRVELELRTNGKKENYTVEVERQGNTWTVKRITRT | 3.24 |
| EEKRQVKQVAKEKLLWQSPNSKVQVRRVQKQGNTIRVELELRTNGKKENYTVEVERQGNTWTVKRITRT | 2.86 |
| EEKRQVKQVAKEKLLFQSPNSKVQVRRVQKQGNTIRVELELRTNGKKENYTVEVERQGNTWTVKRITRT | 2.82 |

| Variant | folding stability dG [kcal/mol] |
| --- | --- |
| EEKRQVKQVAKEKLLEQIPNSKVQVRRVQKQGNTIRVELELRTNGKKENYTVEVERQGNTWTVKRITRT | 3.93 |
| EEKRQVKQVAKEKLLEQGPNSKVQVRRVQKQGNTIRVELELRTNGKKENYTVEVERQGNTWTVKRITRT | 2.56 |
| EEKRQVKQVAKEKLLEQMPNSKVQVRRVQKQGNTIRVELELRTNGKKENYTVEVERQGNTWTVKRITRT | 4.05 |
| EEKRQVKQVAKEKLLEQCPNSKVQVRRVQKQGNTIRVELELRTNGKKENYTVEVERQGNTWTVKRITRT | 3.86 |
| EEKRQVKQVAKEKLLEQQPNSKVQVRRVQKQGNTIRVELELRTNGKKENYTVEVERQGNTWTVKRITRT | 3.82 |
| EEKRQVKQVAKEKLLEQDPNSKVQVRRVQKQGNTIRVELELRTNGKKENYTVEVERQGNTWTVKRITRT | 3.23 |
| EEKRQVKQVAKEKLLEQTPNSKVQVRRVQKQGNTIRVELELRTNGKKENYTVEVERQGNTWTVKRITRT | 3.35 |
| EEKRQVKQVAKEKLLEQKPNSKVQVRRVQKQGNTIRVELELRTNGKKENYTVEVERQGNTWTVKRITRT | 3.83 |
| EEKRQVKQVAKEKLLEQEPNSKVQVRRVQKQGNTIRVELELRTNGKKENYTVEVERQGNTWTVKRITRT | 3.57 |
| EEKRQVKQVAKEKLLEQNPNSKVQVRRVQKQGNTIRVELELRTNGKKENYTVEVERQGNTWTVKRITRT | 4.47 |
| EEKRQVKQVAKEKLLEQYPNSKVQVRRVQKQGNTIRVELELRTNGKKENYTVEVERQGNTWTVKRITRT | 4.74 |
| EEKRQVKQVAKEKLLEQVPNSKVQVRRVQKQGNTIRVELELRTNGKKENYTVEVERQGNTWTVKRITRT | 3.94 |
| EEKRQVKQVAKEKLLEQAPNSKVQVRRVQKQGNTIRVELELRTNGKKENYTVEVERQGNTWTVKRITRT | 3.8 |
| EEKRQVKQVAKEKLLEQPPNSKVQVRRVQKQGNTIRVELELRTNGKKENYTVEVERQGNTWTVKRITRT | 1.99 |
| EEKRQVKQVAKEKLLEQWPNSKVQVRRVQKQGNTIRVELELRTNGKKENYTVEVERQGNTWTVKRITRT | 4.39 |
| EEKRQVKQVAKEKLLEQLPNSKVQVRRVQKQGNTIRVELELRTNGKKENYTVEVERQGNTWTVKRITRT | 4.03 |
| EEKRQVKQVAKEKLLEQFPNSKVQVRRVQKQGNTIRVELELRTNGKKENYTVEVERQGNTWTVKRITRT | 4.68 |
| EEKRQVKQVAKEKLLEQRPNSKVQVRRVQKQGNTIRVELELRTNGKKENYTVEVERQGNTWTVKRITRT | 3.82 |
| EEKRQVKQVAKEKLLEQHPNSKVQVRRVQKQGNTIRVELELRTNGKKENYTVEVERQGNTWTVKRITRT | 4.66 |

Reference: the MegaScale stability set (Tsuboyama et al. 2023)
